Where a chain is given by its changes, count along the chain named. In names and notes the source's numbering stands.
B1: hGPN06-1_H1L1 VL Y93A (antibody, V domains shown)
VH: QVQLVQSGAEVKKPGASVKVSCKASGYTFTDNWMGWVKQRPGQGLEWIGAIDPSDSFTNYNQNFKGRVTMTVDTSISTAYMELSRLRSDDSAVYFCTRSGYYGSPKLGGDYWGQGTLVTVSS
VL: EIVLTQSPSSLSASVGDRVTITCSASSSISYMHWYQQKSGTAPKLLIYSTSNLASGVPSRFSGSGSGTDFTFTISSLQPEDAATYYCHQWNSAPCTFGGGTKLEIK
B2: hGPN06-1_H1L1 VH D55A (antibody, V domains shown)
VH: B1 VH with D55A
VL: B1 VL with A93Y

What was measured:
[1] = target: recombinant human soluble gpNMB (recombinant human gpNMB-FLAG-His) (human) (UniProt Q14956); experiment: antigen ELISA
[2] = target: recombinant human soluble gpNMB (recombinant human gpNMB-FLAG-His) (human) (UniProt Q14956); experiment: antigen ELISA, vs hGPN06-1_H1L1

EC50 [1] [nM]	Relative binding activity [2]	Binder
25.3	0	B1
31.5	0	B2

— EP4772193A1
